Test results from patent publication US20030162220A1 (HARUO SUGIYAMA, published 2003).

Biological target: T1, GST (glutathione S-transferase) alone (UniProt P08515 1-218 = GST)
T1 construct: Control probe in the west western blots
Assay: west western blot of his-tagged WTIP fragments (E. coli lysate) probed with GST

T1 sequence (P08515 whole entry): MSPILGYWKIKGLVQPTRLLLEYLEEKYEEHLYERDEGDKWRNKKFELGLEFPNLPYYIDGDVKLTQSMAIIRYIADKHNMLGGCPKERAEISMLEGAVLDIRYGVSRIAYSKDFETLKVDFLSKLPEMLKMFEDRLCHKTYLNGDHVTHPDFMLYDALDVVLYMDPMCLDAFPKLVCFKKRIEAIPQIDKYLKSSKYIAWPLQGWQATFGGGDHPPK

| binding result | Binder |
| --- | --- |
| no binding | WTIP 1-98, polypeptide containing no WW domains with a histidine tag at the C-terminal (other, Expressed in E. coli; whole-cell lysate run on SDS-PAGE and blotted; also called HYPA/FBP11 amino acids 1-98; mutant containing no WW domain; not shown: C-terminal his tag and XhoI junction residues from pET-21b(+)) MRPGTGAERGGLMVSEMESHPPSQGPGDGERRLSGSSLCSGSWVSADGFLRRRPSMGHPGMHYAPMGMHPMGQRANMPPVPHGMMPQMMPPMGGPPMG |
| no binding | WTIP 1-178, polypeptide containing the WW domain at the N-terminal end of WTIP with a histidine tag at the C-terminal (other, Expressed in E. coli; whole-cell lysate run on SDS-PAGE and blotted; not shown: C-terminal his tag and XhoI junction residues from pET-21b(+)) MRPGTGAERGGLMVSEMESHPPSQGPGDGERRLSGSSLCSGSWVSADGFLRRRPSMGHPGMHYAPMGMHPMGQRANMPPVPHGMMPQMMPPMGGPPMGQMPGMMSSVMPGMMMSHMSQASMQPALPPGVNSMDVAAGTASGAKSMWTEHKSPDGRTYYYNTETKQSTWEKPDDLKTPA |
